According to US20240392002A1 (EXELIXIS, published 2024):
Changes are numbered by the printed parent chain. Numbers in names are those of the source.

B1: I2C-13 IgG1 (antibody, V domains shown)
VH: EVQLVESGGGLVQPGGSLRLSCAASGFTFSSYGIHWVRQAPGKGLEWVAYIHSGIGYTIYADSVKGRFTISADTSKNTAYLQMNSLRAEDTAVYYCARTSSTSTSVMDYWGQGTLVTVSS
VL: DIQMTQSPSSLSASVGDRVTITCRASQSVSSAVAWYQQKPGKAPKLLIYSASSLYSGVPSRFSGSRSGTDFTLTISSLQPEDFATYYCQQTYWSPGTFGQGTKVEIK
notes: human IgG1
B2: I2C-14 IgG1 (antibody, V domains shown)
VH: EVQLVESGGGLVQPGGSLRLSCAASGFTFESYDIHWVRQAPGKGLEWVAAIFSYGGYTTYADSVKGRFTISADTSKNTAYLQMNSLRAEDTAVYYCARGSYGDGRGMDYWGQGTLVTVSS
VL: B1 VL with T91Y, W93Y, S94W
notes: human IgG1
B3: I2C-15 IgG1 (antibody, V domains shown)
VH: EVQLVESGGGLVQPGGSLRLSCAASGFTFSSYFIHWVRQAPGKGLEWVALIYPDTDDTYYADSVKGRFTISADTSKNTAYLQMNSLRAEDTAVYYCARYGYLGVGAFDYWGQGTLVTVSS
VL: B1 VL with T91L, S94T
notes: human IgG1
B4: I2C-12 IgG1 (antibody, V domains shown)
VH: EVQLVESGGGLVQPGGSLRLSCAASGFTFSSYFIHWVRQAPGKGLEWVAAIHPAFSFTYYADSVKGRFTISADTSKNTAYLQMNSLRAEDTAVYYCARPRLSSAVVLDYWGQGTLVTVSS
VL: B1 VL with T91G, W93Y, S94F
notes: human IgG1
B5: I2C-16 IgG1 (antibody, V domains shown)
VH: EVQLVESGGGLVQPGGSLRLSCAASGFTFSSYWIHWVRQAPGKGLEWVAAIHPSGSYTYYADSVKGRFTISADTSKNTAYLQMNSLRAEDTAVYYCARVGLLVTSVMDYWGQGTLVTVSS
VL: B1 VL with T91Y, W93Y, S94F
notes: human IgG1
B6: I2C-17 IgG1 (antibody, V domains shown)
VH: EVQLVESGGGLVQPGGSLRLSCAASGFTFSDYFIHWVRQAPGKGLEWVAYIYPASGGTCYADSVKGRFTISADTSKNTAYLQMNSLRAEDTAVYYCARGYIPHMAALDYWGQGTLVTVSS
VL: B1 VL with T91Y, S94W
notes: human IgG1
B7: I2C-18 IgG1 (antibody, V domains shown)
VH: EVQLVESGGGLVQPGGSLRLSCAASGFTFAGYPIHWVRQAPGKGLEWVAAIDPDGGYTYYADSVKGRFTISADTSKNTAYLQMNSLRAEDTAVYYCARHTGFHRYRGMDYWGQGTLVTVSS
VL: B1 VL with T91Y, S94F, G96P
notes: human IgG1
B8: I2C-22 IgG1 (antibody, V domains shown)
VH: EVQLVESGGGLVQPGGSLRLSCAASGFTFSSYSIHWVRQAPGKGLEWVAAIYPYWGTTEYADSVKGRFTISADTSKNTAYLQMNSLRAEDTAVYYCARPSGVTYGYALDYWGQGTLVTVSS
VL: B1 VL with T91Y, W93Y, G96W
notes: human IgG1
B9: I2C-24 IgG1 (antibody, V domains shown)
VH: EVQLVESGGGLVQPGGSLRLSCAASGFTFSRYYIHWVRQAPGKGLEWVADIDSYGGFTYYADSVKGRFTISADTSKNTAYLQMNSLRAEDTAVYYCARAHRFLQGGYVLDYWGQGTLVTVSS
VL: B1 VL with T91Y, Y92S, S94G, P95L, G96W
notes: human IgG1
B10: I2C-26 IgG1 (antibody, V domains shown)
VH: B9 VH with R31D, A99D, H100P, R101H, Q104D, G105D, G106V
VL: B1 VL with T91Y, Y92S, S94G, P95L, G96W
notes: human IgG1
B11: I2A-24 IgG1 (antibody, V domains shown)
VH: EVQLVESGGGLVQPGGSLRLSCAASGFTFSTYGIHWVRQAPGKGLEWVAAIYPGTSYTGYADSVKGRFTISADTSKNTAYLQMNSLRAEDTAVYYCAREYFMGMDYWGQGTLVTVSS
VL: B1 VL with T91Y, W93Y, S94W
notes: human IgG1
B12: I2C-3 IgG1 (antibody, V domains shown)
VH: EVQLVESGGGLVQPGGSLRLSCAASGFTFSHYWIHWVRQAPGKGLEWVALIAPGGDYTSYADSVKGRFTISADTSKNTAYLQMNSLRAEDTAVYYCARSGLPGFDYWGQGTLVTVSS
VL: B1 VL with T91Y, Y92K, W93S, G96L
notes: human IgG1
B13: I2C-5 IgG1 (antibody, V domains shown)
VH: EVQLVESGGGLVQPGGSLRLSCAASGFTFSSYDIHWVRQAPGKGLEWVAWIYPYWGYTIYADSVKGRFTISADTSKNTAYLQMNSLRAEDTAVYYCARGTYAPALDYWGQGTLVTVSS
VL: B1 VL with T91F, W93S, S94Y, P95L, G96S
notes: human IgG1
B14: I2C-7 IgG1 (antibody, V domains shown)
VH: EVQLVESGGGLVQPGGSLRLSCAASGFTFDSYYIHWVRQAPGKGLEWVAWIDPYGLDTKYADSVKGRFTISADTSKNTAYLQMNSLRAEDTAVYYCAREPGDYGMDYWGQGTLVTVSS
VL: B1 VL with T91A, W93G, P95L, G96L
notes: human IgG1
B15: I2C-19 IgG1 (antibody, V domains shown)
VH: EVQLVESGGGLVQPGGSLRLSCAASGFTFTSYDIHWVRQAPGKGLEWVAWIDPGLSYTSYADSVKGRFTISADTSKNTAYLQMNSLRAEDTAVYYCARASIGGGVPVMDYWGQGTLVTVSS
VL: B1 VL with T91Y, Y92V, W93T, S94G, G96Y
notes: human IgG1
B16: I2C-21 IgG1 (antibody, V domains shown)
VH: EVQLVESGGGLVQPGGSLRLSCAASGFTFSSYYIHWVRQAPGKGLEWVAWIDPYISYTYYADSVKGRFTISADTSKNTAYLQMNSLRAEDTAVYYCARDSELVSGYAMDYWGQGTLVTVSS
VL: B1 VL with T91G, Y92D, W93S, P95L, G96V
notes: human IgG1
B17: I2C-25 IgG1 (antibody, V domains shown)
VH: EVQLVESGGGLVQPGGSLRLSCAASGFTFSDYYIHWVRQAPGKGLEWVAYIAPYGGFTYYADSVKGRFTISADTSKNTAYLQMNSLRAEDTAVYYCARDSYRRGYVSGFDYWGQGTLVTVSS
VL: B1 VL with T91R, W93S, G96S
notes: human IgG1
B18: I2A-30 IgG1 (antibody, V domains shown)
VH: EVQLVESGGGLVQPGGSLRLSCAASGFTFDSYFIHWVRQAPGKGLEWVAYIYSWGSYTHYADSVKGRFTISADTSKNTAYLQMNSLRAEDTAVYYCARGHRRYFALDYWGQGTLVTVSS
VL: B1 VL with T91V, W93F, S94T
notes: human IgG1
B19: I2A-33 IgG1 (antibody, V domains shown)
VH: EVQLVESGGGLVQPGGSLRLSCAASGFTFDDYYIHWVRQAPGKGLEWVAWIDSYGGYTSYADSVKGRFTISADTSKNTAYLQMNSLRAEDTAVYYCARSSYYYPGGFDYWGQGTLVTVSS
VL: B1 VL with T91W, Y92D, W93S, S94T, P95L, G96Y
notes: human IgG1
B20: I2A-37 IgG1 (antibody, V domains shown)
VH: EVQLVESGGGLVQPGGSLRLSCAASGFTFSWYGIHWVRQAPGKGLEWVAYIDSYTSSTYYADSVKGRFTISADTSKNTAYLQMNSLRAEDTAVYYCARSHFGHYDYVMDYWGQGTLVTVSS
VL: B1 VL with T91A, W93D, S94Q, P95L, G96Y
notes: human IgG1
B21: I2A-8 IgG1 (antibody, V domains shown)
VH: EVQLVESGGGLVQPGGSLRLSCAASGFTFYGYYIHWVRQAPGKGLEWVAGIRPGGTYTYYADSVKGRFTISADTSKNTAYLQMNSLRAEDTAVYYCARYRYPAFDYWGQGTLVTVSS
VL: B1 VL with T91R, Y92R, W93Q, S94H, P95L, G96W
notes: human IgG1
B22: I2A-12 IgG1 (antibody, V domains shown)
VH: EVQLVESGGGLVQPGGSLRLSCAASGFTFTTYYIHWVRQAPGKGLEWVAYISPEDGYTSYADSVKGRFTISADTSKNTAYLQMNSLRAEDTAVYYCARAYYSAVMDYWGQGTLVTVSS
VL: B1 VL with T91S, Y92W, W93S, S94P, P95A, G96T
notes: human IgG1
B23: I2A-35 IgG1 (antibody, V domains shown)
VH: EVQLVESGGGLVQPGGSLRLSCAASGFTFSAYDIHWVRQAPGKGLEWVAWIDPYGGDTDYADSVKGRFTISADTSKNTAYLQMNSLRAEDTAVYYCARSPSYMQYGGLDYWGQGTLVTVSS
VL: B1 VL with T91Y, W93S, P95L, G96L
notes: human IgG1

Biological target: T1, extracellular domain of human ROR1 (human, UniProt Q01973 30-406)
T1 construct: bought protein; biotinylated in the bivalent assay format; also called Acro Cat. No. RO1-H522y
T1 sequence (Q01973 30-406 limits assumed): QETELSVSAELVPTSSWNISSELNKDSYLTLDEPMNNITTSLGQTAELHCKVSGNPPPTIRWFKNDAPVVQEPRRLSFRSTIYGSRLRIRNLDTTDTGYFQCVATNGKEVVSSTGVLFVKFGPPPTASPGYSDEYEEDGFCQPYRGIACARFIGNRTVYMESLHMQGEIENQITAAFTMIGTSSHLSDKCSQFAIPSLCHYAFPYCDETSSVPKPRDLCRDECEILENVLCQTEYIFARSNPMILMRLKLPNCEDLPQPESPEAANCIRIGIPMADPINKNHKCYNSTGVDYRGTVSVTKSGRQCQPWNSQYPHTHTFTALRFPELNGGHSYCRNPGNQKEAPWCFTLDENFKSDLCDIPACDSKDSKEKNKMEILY
Test: BLI, IgG1 on biosensor, soluble ROR ectodomain
Text: (§1) To measure binding affinity in ROR binder discovery campaigns, the VL and VH domains identified in the phage screen described above were formatted into a bivalent monospecific native human full-length IgG1 architecture and immobilized to a biosensor on an Octet (Pall ForteBio) biolayer interferometer. Soluble ROR antigens, including the extracellular domains of ROR1 (Acro Cat. No. RO1-H522γ) and ROR2 (Acro Cat. No. R02-H52E5), as well as the individual ROR1 Frizzled (Acro Cat. No. RO1-H5222), Ig-like (Acro Cat. No. RO1-H5221), and Kringle (Acro Cat. No. RO1-H5223) domains, were then added to the system and binding measured.
(§2) ROR binding candidates, formatted in the bivalent monospecific native human full-length IgG1 architecture, were further characterized for binding to ROR1 and/or ROR2. […] ROR binding candidates were also characterized for their binding to specific ROR1 domains.

| Binder | binding result |
| --- | --- |
| B1 | binds |
| B2 | binds |
| B3 | binds |
| B4 | binds |
| B5 | binds |
| B6 | binds |
| B7 | binds |
| B8 | binds |
| B9 | binds |
| B10 | no binding |
| B11 | binds |
| B12 | no binding |
| B13 | no binding |
| B14 | no binding |
| B15 | no binding |
| B16 | no binding |
| B17 | no binding |

Biological target: T2, extracellular domain of human ROR2 (human, UniProt Q01974 34-403)
T2 construct: bought protein; biotinylated in the bivalent assay format; also called Acro Cat. No. RO2-H52E5
T2 sequence (Q01974 34-403 limits assumed): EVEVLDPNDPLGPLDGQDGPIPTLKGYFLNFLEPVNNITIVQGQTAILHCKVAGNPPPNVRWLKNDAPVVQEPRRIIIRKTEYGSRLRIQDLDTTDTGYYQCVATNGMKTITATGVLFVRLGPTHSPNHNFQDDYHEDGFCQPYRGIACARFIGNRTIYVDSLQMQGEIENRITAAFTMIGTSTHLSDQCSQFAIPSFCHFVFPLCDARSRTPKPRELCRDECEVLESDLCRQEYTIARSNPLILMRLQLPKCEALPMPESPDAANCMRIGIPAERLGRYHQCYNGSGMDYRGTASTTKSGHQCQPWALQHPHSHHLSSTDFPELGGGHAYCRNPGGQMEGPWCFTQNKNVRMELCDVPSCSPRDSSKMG
Test: BLI, IgG1 on biosensor, soluble ROR ectodomain
Text: as §1, §2

| Binder | binding result |
| --- | --- |
| B1 | binds |
| B2 | binds |
| B3 | binds |
| B4 | binds |
| B5 | binds |
| B6 | binds |
| B7 | binds |
| B8 | binds |
| B9 | binds |
| B10 | binds |
| B18 | no binding |
| B11 | binds |
| B12 | binds |
| B13 | binds |
| B14 | binds |
| B15 | binds |
| B16 | binds |
| B17 | binds |
| B19 | no binding |
| B20 | no binding |
| B21 | no binding |
| B22 | no binding |

Biological target: T3, ROR1 Ig-like domain (human, UniProt Q01973 42-147)
T3 construct: also called Acro Cat. No. RO1-H5221
T3 sequence (Q01973 42-147): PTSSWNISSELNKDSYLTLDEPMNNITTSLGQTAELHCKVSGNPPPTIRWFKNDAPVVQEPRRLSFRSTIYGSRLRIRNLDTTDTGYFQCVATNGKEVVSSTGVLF
Test: BLI, IgG1 on biosensor, soluble ROR1 domain
Text: as §1, §2

| Binder | binding result |
| --- | --- |
| B1 | binds |
| B2 | binds |
| B3 | binds |
| B4 | binds |
| B5 | binds |
| B6 | binds |
| B9 | binds |
| B23 | binds |
